Tests used:
Experiment in all cases: cell-based or functional assay
[1] = target: Abl(T315I)(h) (human, UniProt P00519 27-1130, limits assumed)
[2] = target: T1, Flt3(D835Y)(h) (human, UniProt P36888 564-993, limits assumed)
T1 sequence (looked up): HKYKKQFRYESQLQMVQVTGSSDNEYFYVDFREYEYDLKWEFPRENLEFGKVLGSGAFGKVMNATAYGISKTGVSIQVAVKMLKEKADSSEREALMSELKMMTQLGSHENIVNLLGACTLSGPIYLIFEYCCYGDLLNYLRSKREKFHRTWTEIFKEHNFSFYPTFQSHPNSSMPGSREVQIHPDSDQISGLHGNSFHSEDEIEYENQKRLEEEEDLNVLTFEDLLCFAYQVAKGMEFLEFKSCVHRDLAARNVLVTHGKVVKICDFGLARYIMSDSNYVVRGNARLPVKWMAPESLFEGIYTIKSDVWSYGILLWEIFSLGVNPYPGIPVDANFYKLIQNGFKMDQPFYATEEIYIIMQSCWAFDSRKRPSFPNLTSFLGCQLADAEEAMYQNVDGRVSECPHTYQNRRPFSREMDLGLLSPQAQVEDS

[3] = target: IGF-1R(h) (human, UniProt P08069 959-1367, limits assumed)
[4] = target: Met(M1268T)(h) (human, UniProt P08581-2 974-1408, limits assumed)
[5] = target: MST3(h) (human, UniProt Q9Y6E0 1-443, limits assumed)
[6] = target: T2, NEK2(h) (human, UniProt P51955 1-445)
T2 sequence (looked up): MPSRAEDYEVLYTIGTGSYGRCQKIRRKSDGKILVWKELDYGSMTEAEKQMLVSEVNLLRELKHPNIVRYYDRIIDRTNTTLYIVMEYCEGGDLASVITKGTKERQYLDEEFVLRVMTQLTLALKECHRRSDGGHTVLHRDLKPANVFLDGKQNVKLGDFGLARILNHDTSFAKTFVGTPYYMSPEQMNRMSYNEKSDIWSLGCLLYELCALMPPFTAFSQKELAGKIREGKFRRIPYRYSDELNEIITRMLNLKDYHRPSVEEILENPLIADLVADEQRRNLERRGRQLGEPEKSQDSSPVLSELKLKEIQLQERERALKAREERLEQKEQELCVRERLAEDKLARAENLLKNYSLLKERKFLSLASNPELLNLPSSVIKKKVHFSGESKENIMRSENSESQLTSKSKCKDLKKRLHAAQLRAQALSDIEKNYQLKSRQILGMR

[7] = target: T3, Ret(V804L)(h) (human, UniProt P07949 658-1114, limits assumed)
T3 sequence (looked up): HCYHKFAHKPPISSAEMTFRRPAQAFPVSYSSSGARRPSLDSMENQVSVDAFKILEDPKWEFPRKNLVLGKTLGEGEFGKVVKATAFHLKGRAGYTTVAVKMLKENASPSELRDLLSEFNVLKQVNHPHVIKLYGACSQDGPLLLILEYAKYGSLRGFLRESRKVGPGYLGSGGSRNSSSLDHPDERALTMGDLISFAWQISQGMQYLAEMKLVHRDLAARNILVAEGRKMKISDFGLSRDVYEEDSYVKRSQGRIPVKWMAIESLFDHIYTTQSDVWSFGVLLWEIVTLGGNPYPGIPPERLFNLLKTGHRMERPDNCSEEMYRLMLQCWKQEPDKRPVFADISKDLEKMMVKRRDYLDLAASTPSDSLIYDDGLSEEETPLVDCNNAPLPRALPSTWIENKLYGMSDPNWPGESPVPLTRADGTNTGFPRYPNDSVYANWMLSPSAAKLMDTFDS

[8] = target: TrkA(h) (human, UniProt P04629 441-796, limits assumed)
[9] = target: T4, CaMKIV(h) (human, UniProt Q16566 1-473)
T4 sequence (looked up): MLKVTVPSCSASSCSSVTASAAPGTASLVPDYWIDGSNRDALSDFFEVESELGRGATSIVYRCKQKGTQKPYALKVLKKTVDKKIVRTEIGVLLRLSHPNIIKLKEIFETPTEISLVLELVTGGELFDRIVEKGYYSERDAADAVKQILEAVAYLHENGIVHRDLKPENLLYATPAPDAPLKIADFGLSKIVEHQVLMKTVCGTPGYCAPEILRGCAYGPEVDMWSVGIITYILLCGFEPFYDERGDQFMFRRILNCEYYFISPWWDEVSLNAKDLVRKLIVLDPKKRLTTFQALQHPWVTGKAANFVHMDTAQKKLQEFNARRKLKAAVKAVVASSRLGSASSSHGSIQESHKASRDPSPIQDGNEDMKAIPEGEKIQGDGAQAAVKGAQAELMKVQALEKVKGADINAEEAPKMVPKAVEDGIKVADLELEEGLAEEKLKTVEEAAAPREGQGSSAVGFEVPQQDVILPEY

[10] = target: CDK2/cyclinA(h) (human, UniProt P24941 1-298; P20248 1-432)
[11] = target: cKit(h) (human, UniProt P10721 544-976)
[12] = target: T5, DRAK1(h) (human, UniProt Q9UEE5 1-414, limits assumed)
T5 sequence (looked up): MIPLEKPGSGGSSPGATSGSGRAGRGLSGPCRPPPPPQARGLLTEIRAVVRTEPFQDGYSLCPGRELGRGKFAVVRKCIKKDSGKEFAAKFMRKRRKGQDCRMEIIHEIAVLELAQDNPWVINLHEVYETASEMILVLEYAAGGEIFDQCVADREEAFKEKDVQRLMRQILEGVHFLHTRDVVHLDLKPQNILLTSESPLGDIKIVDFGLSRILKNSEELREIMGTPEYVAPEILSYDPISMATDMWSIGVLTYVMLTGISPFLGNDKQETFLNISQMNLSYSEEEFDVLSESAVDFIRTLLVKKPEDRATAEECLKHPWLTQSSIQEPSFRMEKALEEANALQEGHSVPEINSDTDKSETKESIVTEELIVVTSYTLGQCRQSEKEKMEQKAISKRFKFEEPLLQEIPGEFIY

[13] = target: FGFR4(h) (human, UniProt P22455 460-802, limits assumed)
FGFR4(h), sequence (P22455 460-802 limits assumed): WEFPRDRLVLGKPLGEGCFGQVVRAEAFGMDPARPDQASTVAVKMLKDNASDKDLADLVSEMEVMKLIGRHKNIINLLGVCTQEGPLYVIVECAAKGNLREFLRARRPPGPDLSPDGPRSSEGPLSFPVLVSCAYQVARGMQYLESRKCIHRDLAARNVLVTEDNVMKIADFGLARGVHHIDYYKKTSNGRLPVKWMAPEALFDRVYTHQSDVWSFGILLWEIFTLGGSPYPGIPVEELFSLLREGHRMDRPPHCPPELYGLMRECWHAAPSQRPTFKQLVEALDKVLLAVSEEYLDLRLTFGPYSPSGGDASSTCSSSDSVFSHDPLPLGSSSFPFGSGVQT

MST3(h), sequence (Q9Y6E0 whole entry): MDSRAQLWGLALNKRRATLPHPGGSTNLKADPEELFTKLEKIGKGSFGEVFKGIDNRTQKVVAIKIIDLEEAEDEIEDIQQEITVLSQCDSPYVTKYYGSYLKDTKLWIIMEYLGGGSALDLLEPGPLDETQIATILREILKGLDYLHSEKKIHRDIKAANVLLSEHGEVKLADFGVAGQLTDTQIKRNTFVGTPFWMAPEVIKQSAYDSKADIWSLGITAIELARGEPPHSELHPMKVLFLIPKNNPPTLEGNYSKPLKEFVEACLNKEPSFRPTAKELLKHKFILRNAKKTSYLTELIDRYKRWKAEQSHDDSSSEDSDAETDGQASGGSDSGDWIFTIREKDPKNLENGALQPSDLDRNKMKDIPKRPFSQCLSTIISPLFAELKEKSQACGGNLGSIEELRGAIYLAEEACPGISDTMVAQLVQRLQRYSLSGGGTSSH
Abl(T315I)(h), sequence (P00519 27-1130 T315I limits assumed): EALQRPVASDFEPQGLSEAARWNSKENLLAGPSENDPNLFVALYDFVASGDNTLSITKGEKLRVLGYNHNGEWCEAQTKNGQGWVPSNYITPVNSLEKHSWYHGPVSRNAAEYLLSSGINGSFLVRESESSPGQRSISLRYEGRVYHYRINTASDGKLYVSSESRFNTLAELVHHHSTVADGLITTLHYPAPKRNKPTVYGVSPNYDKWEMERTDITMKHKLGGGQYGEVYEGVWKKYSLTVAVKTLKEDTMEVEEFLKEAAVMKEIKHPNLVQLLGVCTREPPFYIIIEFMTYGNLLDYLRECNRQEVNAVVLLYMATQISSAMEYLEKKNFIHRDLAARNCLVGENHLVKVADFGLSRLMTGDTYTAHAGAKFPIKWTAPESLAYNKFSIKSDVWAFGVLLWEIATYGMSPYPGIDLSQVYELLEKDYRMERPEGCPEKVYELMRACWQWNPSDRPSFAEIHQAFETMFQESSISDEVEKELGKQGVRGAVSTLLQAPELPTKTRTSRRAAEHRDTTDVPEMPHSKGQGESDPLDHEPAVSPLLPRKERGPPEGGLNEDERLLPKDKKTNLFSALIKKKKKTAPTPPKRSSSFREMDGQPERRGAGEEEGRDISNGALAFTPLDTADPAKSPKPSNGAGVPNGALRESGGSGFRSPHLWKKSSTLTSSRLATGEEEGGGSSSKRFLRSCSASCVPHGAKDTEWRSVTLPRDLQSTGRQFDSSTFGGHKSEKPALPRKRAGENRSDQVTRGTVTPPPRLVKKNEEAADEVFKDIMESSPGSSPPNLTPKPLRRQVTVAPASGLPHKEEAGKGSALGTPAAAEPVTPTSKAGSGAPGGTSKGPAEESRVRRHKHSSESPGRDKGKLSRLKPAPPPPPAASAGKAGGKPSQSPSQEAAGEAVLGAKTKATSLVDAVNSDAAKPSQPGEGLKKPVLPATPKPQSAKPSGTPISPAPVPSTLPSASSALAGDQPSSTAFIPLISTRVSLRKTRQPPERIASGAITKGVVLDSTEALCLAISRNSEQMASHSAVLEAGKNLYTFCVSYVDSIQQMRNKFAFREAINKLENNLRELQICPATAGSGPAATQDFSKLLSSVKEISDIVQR
cKit(h), sequence (P10721 544-976): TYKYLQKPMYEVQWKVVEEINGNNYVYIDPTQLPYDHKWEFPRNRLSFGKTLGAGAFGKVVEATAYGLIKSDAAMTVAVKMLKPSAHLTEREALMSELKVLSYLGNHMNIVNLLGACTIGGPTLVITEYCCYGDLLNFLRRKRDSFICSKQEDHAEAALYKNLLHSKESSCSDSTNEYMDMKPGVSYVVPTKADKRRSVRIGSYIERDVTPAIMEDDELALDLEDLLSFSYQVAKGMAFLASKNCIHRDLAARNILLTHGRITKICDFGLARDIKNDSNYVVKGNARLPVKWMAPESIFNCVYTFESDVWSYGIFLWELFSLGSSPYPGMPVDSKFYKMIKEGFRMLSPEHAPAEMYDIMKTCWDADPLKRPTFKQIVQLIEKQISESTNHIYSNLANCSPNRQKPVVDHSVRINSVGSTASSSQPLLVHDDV
TrkA(h), sequence (P04629 441-796 limits assumed): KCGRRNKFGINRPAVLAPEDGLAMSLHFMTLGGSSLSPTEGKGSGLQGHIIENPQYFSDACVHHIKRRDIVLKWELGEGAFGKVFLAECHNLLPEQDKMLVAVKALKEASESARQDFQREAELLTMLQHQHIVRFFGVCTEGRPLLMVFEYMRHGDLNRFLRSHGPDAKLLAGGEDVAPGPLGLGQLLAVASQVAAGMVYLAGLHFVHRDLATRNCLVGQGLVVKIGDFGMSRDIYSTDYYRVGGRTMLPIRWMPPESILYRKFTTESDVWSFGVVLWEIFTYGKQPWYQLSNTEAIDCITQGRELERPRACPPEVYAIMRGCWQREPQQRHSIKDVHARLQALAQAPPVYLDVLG
IGF-1R(h), sequence (P08069 959-1367 limits assumed): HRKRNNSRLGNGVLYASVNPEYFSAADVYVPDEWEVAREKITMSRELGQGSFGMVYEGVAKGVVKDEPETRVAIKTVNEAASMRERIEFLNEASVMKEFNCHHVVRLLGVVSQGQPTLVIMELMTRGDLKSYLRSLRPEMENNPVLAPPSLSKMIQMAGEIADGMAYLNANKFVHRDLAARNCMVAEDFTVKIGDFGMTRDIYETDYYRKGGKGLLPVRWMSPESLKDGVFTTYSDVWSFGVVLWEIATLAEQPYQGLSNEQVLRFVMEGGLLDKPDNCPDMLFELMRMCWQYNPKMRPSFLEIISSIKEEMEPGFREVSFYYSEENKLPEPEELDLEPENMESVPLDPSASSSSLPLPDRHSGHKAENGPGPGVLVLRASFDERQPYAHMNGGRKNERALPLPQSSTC

Binder	% activity, 100 µM [1] [%]	% activity, 100 µM [2] [%]	% activity, 100 µM [3] [%]	% activity, 100 µM [4] [%]	% activity, 100 µM [5] [%]	% activity, 100 µM [6] [%]	% activity, 100 µM [7] [%]	% activity, 100 µM [8] [%]	% activity, 100 µM [9] [%]	% activity, 100 µM [10] [%]	% activity, 100 µM [11] [%]	% activity, 100 µM [12] [%]	% activity, 100 µM [13] [%]
KAFAKLAARLYRKALARQLGVAA [MMI-0400]	105	71	90	265	36	61	73	17	18	92	43	14	19
FAKLAARLYRKALARQLGVAA [MMI-0300]	97	80	119	255	45	78	79	25	17	86	53	14	28

— patent publication US20140072613A1 (published 2014)
